Values of other authors, collected in paper PMC10886550.

How the values were obtained:
[1] = molecular target: DNA gyrase (Escherichia coli) (UniProt P0AES4)
GyrB (Escherichia coli) = GyrB (Escherichia coli) (UniProt P0AES6)

UniProt P0AES4, sequence (P0AES4 2-875): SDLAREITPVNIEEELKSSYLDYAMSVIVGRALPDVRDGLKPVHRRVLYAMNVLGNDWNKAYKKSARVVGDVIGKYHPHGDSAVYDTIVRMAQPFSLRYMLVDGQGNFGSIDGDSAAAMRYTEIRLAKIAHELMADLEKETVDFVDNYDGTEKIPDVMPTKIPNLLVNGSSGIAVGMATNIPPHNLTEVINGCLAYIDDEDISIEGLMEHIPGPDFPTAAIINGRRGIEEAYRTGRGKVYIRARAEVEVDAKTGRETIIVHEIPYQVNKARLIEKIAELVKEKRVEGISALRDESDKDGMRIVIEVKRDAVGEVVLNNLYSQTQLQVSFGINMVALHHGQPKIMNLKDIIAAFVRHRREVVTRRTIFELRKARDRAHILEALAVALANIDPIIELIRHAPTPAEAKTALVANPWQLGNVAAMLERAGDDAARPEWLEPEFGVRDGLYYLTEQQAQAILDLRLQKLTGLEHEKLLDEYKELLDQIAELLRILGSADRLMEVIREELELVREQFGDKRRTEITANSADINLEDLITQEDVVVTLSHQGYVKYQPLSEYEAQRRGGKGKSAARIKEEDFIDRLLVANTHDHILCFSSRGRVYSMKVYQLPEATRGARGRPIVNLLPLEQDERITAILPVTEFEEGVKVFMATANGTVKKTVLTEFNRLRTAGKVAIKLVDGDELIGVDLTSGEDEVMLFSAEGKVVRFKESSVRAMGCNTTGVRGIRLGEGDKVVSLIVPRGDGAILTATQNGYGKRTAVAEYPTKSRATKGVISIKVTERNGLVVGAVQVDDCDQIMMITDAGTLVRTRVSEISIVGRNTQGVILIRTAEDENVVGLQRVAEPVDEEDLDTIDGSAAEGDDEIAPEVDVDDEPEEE

Kd [1] [µM] | Kd (GyrB (Escherichia coli)) [µM] | Substance
26 |  | GyrI peptide 33-48 (from UniProt P33012)
 | 0.35 | YacG (from UniProt P0A8H8)
